Here are results for 7 molecules from patent CN115521379A (NANJING JISHENG AOMA BIOLOGICAL PHARMACEUTICAL CO LTD, dated 2022).

Test [1] addresses T1, PD-1蛋白 (human, UniProt Q15116 25-167, limits assumed).
T1 construct: Recombinant PD-1 protein used in ELISA, SPR and BLI; also called PD-1[B]; (biotinylated)
Kind of test: SPR (Biacore T200), antibody captured by anti-human Fc, PD-1 injected. (Surface plasmon resonance follows binding to a sensor surface in real time, without labels.)

The target in test [2] is T1, PD-1蛋白. Briefly: binding ELISA on coated PD-1 protein.
Test [3] has as its target T1, PD-1蛋白. Kind of test: competition ELISA: PD-L1 coated, biotinylated PD-1 0.5 ug/mL, antibody titrated. A general note: ELISA stands for enzyme-linked immunosorbent assay.

Substitutions are numbered along the chain they refer to. Names and notes keep the numbering of the source.

T1 sequence (Q15116 25-167 limits assumed): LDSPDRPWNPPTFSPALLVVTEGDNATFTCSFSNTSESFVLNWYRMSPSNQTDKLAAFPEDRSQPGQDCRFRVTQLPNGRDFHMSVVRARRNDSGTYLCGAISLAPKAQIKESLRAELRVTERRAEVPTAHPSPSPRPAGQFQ

B1: hu19D4-25 (antibody, V domains shown)
VH: EVQLQESGPGLVKPSETLSLTCTVSGFSLTSYAISWIRQPPGKGLEWIGVIWTGGGTNYNSALKSRVTISKDTSKNQVSLKLSSVTAADTAVYYCARDHYGTSPFVYWGQGTLVTVSS
VL: DIVLTQTPLSLSVTPGQPASISCRASESVDNYGISFMNWFLQKPGQPPQLLIYAASNQGSGVPDRFSGSGSGTDFTLKISRVEAEDVGVYFCQQSKEVPWTFGGGTKVEIK
notes: also called 人源化抗体hu19D4-25
One may read the Kd as the free concentration of one partner at which half of the binding sites on the other are occupied at equilibrium, for simple one-to-one binding. Low values mean a tighter complex, high ones a looser complex. By koff is commonly meant the first-order rate constant of dissociation. A low value points to a long-lived complex. Usually kon stands for the second-order rate constant of association. For orientation: EC50 means the concentration that produces a half-maximal response. A low value points to an effect from little substance. Turning to B1, in test [1], the Kd amounted to 89.5 nM, the koff amounted to 0.0105 s⁻¹ and the kon came to 118000 M⁻¹ s⁻¹. Also, in test [2], the EC50 came out at 0.192 nM.

B2: WT-Agly-YTE (antibody, V domains shown)
VH: B1 VH
VL: B1 VL
notes: also called WT-Ag-YTE; WT-AGY-YTE
In general, IC50 refers to the point on the concentration scale where inhibition reaches its midpoint. Lower therefore signals inhibition by little substance. For the molecule B2, the IC50 in test [3] came to 0.411 µg/mL.

B3: 1C2-3C11-W52F-Agly-YTE (antibody, V domains shown)
VH: B1 VH with W52F, D98E
VL: B1 VL with K96L
notes: 19D4-25-1C2-3C11 with W52F and an Fc with YTE (M252Y, S254T, T256E) and N297A; The label itself is not defined in the text
Consider B3, for which the IC50 in test [3] stood at 0.495 µg/mL.

B4: 3C11-Agly-YTE (antibody, V domains shown)
VH: B1 VH with D98E
VL: B1 VL
notes: also called 19D4-25-3C11与YTE突变、N297突变的Fc融合后得到的抗原结合蛋白
Consider B4, for which the IC50 in test [3] stood at 0.543 µg/mL.

B5: 1C2-3C11-Agly-YTE (antibody, V domains shown)
VH: B1 VH with D98E
VL: B1 VL with K96L
notes: also called 19D4-25-1C2-3C11与YTE突变、N297突变的Fc融合后得到的抗原结合蛋白
Consider B5, for which, in test [3], the IC50 was found to be 0.369 µg/mL.

B6: 1C2-Agly (antibody, V domains shown)
VH: B1 VH
VL: B1 VL with K96L
notes: also called 19D4-25-1C2与N297突变的Fc融合后得到的抗原结合蛋白
In turn, B6 registered an IC50 in test [3] of 0.375 µg/mL.

B7: 1C2-Agly-YTE (antibody, V domains shown)
VH: B1 VH
VL: B1 VL with K96L
notes: also called 19D4-25-1C2与YTE突变、N297突变的Fc融合后得到的抗原结合蛋白
In test [3], B7 registered an IC50 of 0.492 µg/mL.
